Assay results: patent US20180079802A1

Target: CHIKV VLP
Experiment: SPR (Biacore T100), VLP captured by mouse anti-CHIKV mAbs, Fab injected

B1: 4J21 Fab (Fab, V domains shown)
VH: QVQLVQSGSELKKPGASVKVSCKASGYSFTSYSINWVRQAPGQGPEWMGWIDTNTGNPTYAQDFAGRFVFSLDTSVTTAYLQISSLKAGDTAVYYCATYYVDLWGSYRQDYYGMDVWGHGTLVTVSS
VL: QSVVTQPPSVSGTPGQGVTISCSGGSSNIGSNPVNWYQMVPGTAPKLLLYTNNQRPSGVPDRFSGSKSGTSASLAINGLQSEDEADYYCAVWDDSLSGRWVFGGGTKLTVL
Kd: 9 nM | koff: 0.00142 s⁻¹ | kon: 158000 M⁻¹ s⁻¹ | t1/2: 8 min

B2: 3E23 Fab (Fab, V domains shown)
VH: QVQLVQSGPGLVKPSDTLSLTCSVSSDALRSRSYYWGWVRQPPGKGLEWIGTVSYSGGTYYNPSLQSRVTVSVDTSKNHFSLRLNSVTAADAAVYYCARSYFYDGSGYYYLSYFDSWGQGTLVTVSS
VL: QAVVTQEPSLTVSPGGTVTLTCASSTGAVTSGHYPNWFQQKPGQPPRALIYSTDNKHSWTPARFSGSLLGVKAALTLSDVQPEDEADYYCLLHFGGVVVFGGGTKLTVL
Kd: 19.6 nM | koff: 0.000393 s⁻¹ | kon: 20300 M⁻¹ s⁻¹ | t1/2: 29 min
